Results on 1 molecule are retold here after paper PMC3350866 (Oncogene, 2006).

The test concerns the target baculovirus-expressed human Dnmt1 (human, UniProt P26358 1-1616). Description: pull-down.

Sequence of baculovirus-expressed human Dnmt1 (P26358 whole entry): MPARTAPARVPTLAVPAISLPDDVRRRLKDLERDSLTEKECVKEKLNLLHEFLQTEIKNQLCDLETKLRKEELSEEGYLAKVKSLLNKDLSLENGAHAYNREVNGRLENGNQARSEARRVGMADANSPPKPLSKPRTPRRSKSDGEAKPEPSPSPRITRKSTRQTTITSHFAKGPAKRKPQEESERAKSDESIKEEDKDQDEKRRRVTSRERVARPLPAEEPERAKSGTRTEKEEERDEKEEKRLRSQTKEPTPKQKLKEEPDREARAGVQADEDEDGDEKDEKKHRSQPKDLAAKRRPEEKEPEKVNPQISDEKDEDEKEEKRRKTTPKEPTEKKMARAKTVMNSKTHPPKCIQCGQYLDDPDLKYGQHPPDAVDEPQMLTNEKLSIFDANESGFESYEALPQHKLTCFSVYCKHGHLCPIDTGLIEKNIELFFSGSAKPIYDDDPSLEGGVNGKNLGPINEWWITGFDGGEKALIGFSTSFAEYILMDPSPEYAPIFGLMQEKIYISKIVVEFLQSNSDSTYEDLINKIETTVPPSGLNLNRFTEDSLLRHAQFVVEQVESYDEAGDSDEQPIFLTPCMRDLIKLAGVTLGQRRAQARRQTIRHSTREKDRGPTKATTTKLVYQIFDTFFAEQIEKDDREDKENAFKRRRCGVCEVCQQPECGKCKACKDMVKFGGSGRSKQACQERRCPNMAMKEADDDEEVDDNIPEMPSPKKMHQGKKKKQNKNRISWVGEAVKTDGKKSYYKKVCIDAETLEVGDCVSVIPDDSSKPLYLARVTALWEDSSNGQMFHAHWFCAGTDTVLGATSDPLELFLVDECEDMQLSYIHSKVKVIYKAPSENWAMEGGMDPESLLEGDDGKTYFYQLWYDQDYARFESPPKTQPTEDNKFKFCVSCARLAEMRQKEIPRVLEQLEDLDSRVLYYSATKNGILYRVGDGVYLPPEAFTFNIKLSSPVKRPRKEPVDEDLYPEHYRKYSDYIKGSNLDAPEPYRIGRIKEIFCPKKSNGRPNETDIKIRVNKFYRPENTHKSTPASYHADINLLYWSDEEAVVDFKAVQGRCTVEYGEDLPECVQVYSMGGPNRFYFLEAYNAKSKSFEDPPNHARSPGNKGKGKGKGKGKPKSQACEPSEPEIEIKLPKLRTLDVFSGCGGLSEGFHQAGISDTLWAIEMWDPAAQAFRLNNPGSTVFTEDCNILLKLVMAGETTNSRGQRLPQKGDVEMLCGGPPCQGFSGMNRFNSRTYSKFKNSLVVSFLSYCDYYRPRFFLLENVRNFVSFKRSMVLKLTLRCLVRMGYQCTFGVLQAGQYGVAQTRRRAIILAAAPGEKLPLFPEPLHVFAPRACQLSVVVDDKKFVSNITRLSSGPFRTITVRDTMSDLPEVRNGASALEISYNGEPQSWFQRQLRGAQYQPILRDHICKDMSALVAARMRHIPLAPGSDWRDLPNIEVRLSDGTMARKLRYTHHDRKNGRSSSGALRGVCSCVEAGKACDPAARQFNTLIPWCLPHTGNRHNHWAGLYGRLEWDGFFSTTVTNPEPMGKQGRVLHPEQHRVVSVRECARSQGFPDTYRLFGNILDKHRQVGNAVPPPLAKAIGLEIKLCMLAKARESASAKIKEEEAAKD

B1: GST-E7 (HPV-16 E7) (natural protein, UniProt P03129 1-98, looked up)
chain: MHGDTPTLHEYMLDLQPETTDLYCYEQLNDSSEEEDEIDGPAGQAEPDRAHYNIVTFCCKCDSTLRLCVQSTHVDIRTLEDLLMGTLGIVCPICSQKP
As for B1, the binding result is “binds”.
